# Assay results taken from IntAct's records for PubMed 24286120.
# B1: Malignant fibrous histiocytoma-amplified sequence 1 (Homo sapiens), Q9Y4C4 (parent)
# chain: MAGMDSGNLKTARLWRDAALRARKLRSNLRQLTLTAAGACPGAGADALESPASPQLVLPANLGDIEALNLGNNGLEEVPEGLGSALGSLRVLVLRRNRFARLPPAVAELGHHLTELDVSHNRLTALGAEVVSALRELRKLNLSHNQLPALPAQLGALAHLEELDVSFNRLAHLPDSLSCLSRLRTLDVDHNQLTAFPRQLLQLVALEELDVSSNRLRGLPEDISALRALKILWLSGAELGTLPAGFCELASLESLMLDNNGLQALPAQFSCLQRLKMLNLSSNLFEEFPAALLPLAGLEELYLSRNQLTSVPSLISGLGRLLTLWLDNNRIRYLPDSIVELTGLEELVLQGNQIAVLPDHFGQLSRVGLWKIKDNPLIQPPYEVCMKGIPYIAAYQKELAHSQPAVQPRLKLLLMGHKAAGKTLLRHCLTEERVEGCPGGGDKEKCYPPSPPPVSKGIEVTSWTADASRGLRFIVYDLAGDESYEVIQPFFLSPGALYVLVVNLATYEPRHFPTTVGSFLHRVGARVPHAVVCIVGTHADLCGERELEEKCLDIHRQIALQEKHDAEGLSRLAKVVDEALARDFELRSASPHAAYYGVSDKNLRRRKAHFQYLLNHRLQILSPVLPVSCRDPRHLRRLRDKLLSVAEHREIFPNLHRVLPRSWQVLEELHFQPPQAQRLWLSWWDSARLGLQAGLTEDRLQSALSYLHESGKLLYFEDSPALKEHVFHNLTRLIDILNVFFQRDPSLLLHKLLLGTSGEGKAEGESSPPMARSTPSQELLRATQLHQYVEGFLLHGLLPAHVIRLLLKPHVQAQQDLQLLLELLEKMGLCYCLNKPKGKPLNGSTAWYKFPCYVQNEVPHAEAWINGTNLAGQSFVAEQLQIEYSFPFTFPLGLFARYSVQINSHVVHRSDGKFQIFAYRGKVPVVVSYRPARGVLQPDTLSIASHASLPNIWTAWQAITPLVEELNVLLQEWPGLHYTVHILCSKCLKRGSPNPHAFPGELLSQPRPEGVAEIICPKNGSERVNVALVYPPTPTVISPCSKKNVGEKHRNQ
# Variants of: B1
# Conditions: with ch60_human HSPD1, P10809
# ch60_human HSPD1, P10809, sequence (P10809 whole entry): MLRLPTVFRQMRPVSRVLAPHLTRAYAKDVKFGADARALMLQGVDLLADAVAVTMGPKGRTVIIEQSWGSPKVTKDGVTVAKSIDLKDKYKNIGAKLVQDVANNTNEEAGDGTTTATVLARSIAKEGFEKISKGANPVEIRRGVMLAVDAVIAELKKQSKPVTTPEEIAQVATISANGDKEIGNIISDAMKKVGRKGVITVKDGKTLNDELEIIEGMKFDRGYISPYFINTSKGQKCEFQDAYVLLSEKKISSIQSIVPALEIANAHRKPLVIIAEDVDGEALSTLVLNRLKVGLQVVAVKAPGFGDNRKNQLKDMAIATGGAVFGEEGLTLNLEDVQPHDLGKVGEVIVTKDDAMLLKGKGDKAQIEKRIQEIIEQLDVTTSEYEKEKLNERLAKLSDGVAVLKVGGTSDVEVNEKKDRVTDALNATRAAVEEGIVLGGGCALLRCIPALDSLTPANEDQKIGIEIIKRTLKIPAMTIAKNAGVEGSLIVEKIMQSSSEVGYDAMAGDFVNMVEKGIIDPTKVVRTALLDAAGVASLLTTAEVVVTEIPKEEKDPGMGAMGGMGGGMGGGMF
row,Variant,effect of a mutation on the interaction
1,K422A,increasing interaction
